Numbered stars: 1 amine (or outer) side, 2 acyl side, 3 side chain; on linkers, the order of the positions; unused ones are H or OH. Bridge positions count the residues as written; N and C are the ends. Side chains are listed from the residue outwards. Ends that are not written are not given here. * marks the point of attachment. C20 diacid = O=C(O)CCCCCCCCCCCCCCCCCCC(=O)*; γGlu = O=C(O)[C@H](CCC(=O)[*:2])N[*:1]; AEEA = NCCOCCOCC(=O)O
T1: human amylin receptor (human, UniProt P30988 25-474; O60896 24-148, limits assumed)
T1 construct: whole, on cells; Used as cell membranes prepared from the Amylin 3(a)/CRE-luc BHK cells (Assay V); also called hAmylin-R; hAmylinR
T1 sequence (looked up) 1: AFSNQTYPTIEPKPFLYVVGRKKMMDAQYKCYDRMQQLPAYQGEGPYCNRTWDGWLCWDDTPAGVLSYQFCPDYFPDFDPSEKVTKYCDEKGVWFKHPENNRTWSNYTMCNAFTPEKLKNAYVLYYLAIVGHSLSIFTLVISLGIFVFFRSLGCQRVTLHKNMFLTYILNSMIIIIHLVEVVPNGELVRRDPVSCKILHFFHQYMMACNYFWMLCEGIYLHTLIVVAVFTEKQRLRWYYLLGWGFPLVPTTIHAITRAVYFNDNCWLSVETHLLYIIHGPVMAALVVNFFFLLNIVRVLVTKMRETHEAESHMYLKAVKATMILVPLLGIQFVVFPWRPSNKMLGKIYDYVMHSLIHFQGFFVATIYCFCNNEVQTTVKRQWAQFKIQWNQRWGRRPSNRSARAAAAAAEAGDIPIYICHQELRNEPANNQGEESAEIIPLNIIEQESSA
T1 sequence (looked up) 2: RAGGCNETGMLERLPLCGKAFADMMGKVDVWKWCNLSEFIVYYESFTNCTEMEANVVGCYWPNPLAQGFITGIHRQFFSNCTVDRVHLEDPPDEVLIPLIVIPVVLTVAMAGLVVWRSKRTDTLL

B1: N^ε1-[2-[2-[2-[[2-[2-[2-[[(4S)-4-carboxy-4-(19-carboxynonadecanoylamino)butanoyl]amino]ethoxy]ethoxy]acetyl]amino]ethoxy]ethoxy]acetyl]-[Arg17,Pro21,Pro27,Glu35 … (peptide)
peptide: K([AEEA-AEEA-γGlu-C20 diacid])CNTATCATQRLANFLRHSSPNFGAIPSSTNVGSETY-NH2
modifications: disulfide 2-7; N-terminus assumed
SMILES: CC[C@H](C)[C@H](NC(=O)[C@H](C)NC(=O)CNC(=O)[C@H](Cc1ccccc1)NC(=O)[C@H](CC(N)=O)NC(=O)[C@@H]1CCCN1C(=O)[C@H](CO)NC(=O)[C@H](CO)NC(=O)[C@H](Cc1c[nH]cn1)NC(=O)[C@H](CCCNC(=N)N)NC(=O)[C@H](CC(C)C)NC(=O)[C@H](Cc1ccccc1)NC(=O)[C@H](CC(N)=O)NC(=O)[C@H](C)NC(=O)[C@H](CC(C)C)NC(=O)[C@H](CCCNC(=N)N)NC(=O)[C@H](CCC(N)=O)NC(=O)[C@@H](NC(=O)[C@H](C)NC(=O)[C@@H]1CSSC[C@H](NC(=O)[C@@H](N)CCCCNC(=O)COCCOCCNC(=O)COCCOCCNC(=O)CC[C@H](NC(=O)CCCCCCCCCCCCCCCCCCC(=O)O)C(=O)O)C(=O)N[C@@H](CC(N)=O)C(=O)N[C@@H]([C@@H](C)O)C(=O)N[C@@H](C)C(=O)N[C@@H]([C@@H](C)O)C(=O)N1)[C@@H](C)O)C(=O)N1CCC[C@H]1C(=O)N[C@@H](CO)C(=O)N[C@@H](CO)C(=O)N[C@H](C(=O)N[C@@H](CC(N)=O)C(=O)N[C@H](C(=O)NCC(=O)N[C@@H](CO)C(=O)N[C@@H](CCC(=O)O)C(=O)N[C@H](C(=O)N[C@@H](Cc1ccc(O)cc1)C(N)=O)[C@@H](C)O)C(C)C)[C@@H](C)O
notes: also called compound 25
B2: N^ε1-[2-[2-[2-[[(4S)-4-carboxy-4-(19-carboxynonadecanoylamino)butanoyl]amino]ethoxy]ethoxy]acetyl]-[Arg17,Pro21,Pro27,Glu35]-h-amylin (peptide)
peptide: K([AEEA-γGlu-C20 diacid])CNTATCATQRLANFLRHSSPNFGAIPSSTNVGSETY-NH2
modifications: disulfide 2-7; N-terminus assumed
SMILES: CC[C@H](C)[C@H](NC(=O)[C@H](C)NC(=O)CNC(=O)[C@H](Cc1ccccc1)NC(=O)[C@H](CC(N)=O)NC(=O)[C@@H]1CCCN1C(=O)[C@H](CO)NC(=O)[C@H](CO)NC(=O)[C@H](Cc1c[nH]cn1)NC(=O)[C@H](CCCNC(=N)N)NC(=O)[C@H](CC(C)C)NC(=O)[C@H](Cc1ccccc1)NC(=O)[C@H](CC(N)=O)NC(=O)[C@H](C)NC(=O)[C@H](CC(C)C)NC(=O)[C@H](CCCNC(=N)N)NC(=O)[C@H](CCC(N)=O)NC(=O)[C@@H](NC(=O)[C@H](C)NC(=O)[C@@H]1CSSC[C@H](NC(=O)[C@@H](N)CCCCNC(=O)COCCOCCNC(=O)CC[C@H](NC(=O)CCCCCCCCCCCCCCCCCCC(=O)O)C(=O)O)C(=O)N[C@@H](CC(N)=O)C(=O)N[C@@H]([C@@H](C)O)C(=O)N[C@@H](C)C(=O)N[C@@H]([C@@H](C)O)C(=O)N1)[C@@H](C)O)C(=O)N1CCC[C@H]1C(=O)N[C@@H](CO)C(=O)N[C@@H](CO)C(=O)N[C@H](C(=O)N[C@@H](CC(N)=O)C(=O)N[C@H](C(=O)NCC(=O)N[C@@H](CO)C(=O)N[C@@H](CCC(=O)O)C(=O)N[C@H](C(=O)N[C@@H](Cc1ccc(O)cc1)C(N)=O)[C@@H](C)O)C(C)C)[C@@H](C)O
notes: also called compound 26
B3: N^ε1-[2-[2-[2-[[(4S)-4-carboxy-4-(19-carboxynonadecanoylamino)butanoyl]amino]ethoxy]ethoxy]acetyl]-[Arg17,Pro21,Pro27,Arg35]-h-amylin (peptide)
peptide: K([AEEA-γGlu-C20 diacid])CNTATCATQRLANFLRHSSPNFGAIPSSTNVGSRTY-NH2
modifications: disulfide 2-7; N-terminus assumed
SMILES: CC[C@H](C)[C@H](NC(=O)[C@H](C)NC(=O)CNC(=O)[C@H](Cc1ccccc1)NC(=O)[C@H](CC(N)=O)NC(=O)[C@@H]1CCCN1C(=O)[C@H](CO)NC(=O)[C@H](CO)NC(=O)[C@H](Cc1c[nH]cn1)NC(=O)[C@H](CCCNC(=N)N)NC(=O)[C@H](CC(C)C)NC(=O)[C@H](Cc1ccccc1)NC(=O)[C@H](CC(N)=O)NC(=O)[C@H](C)NC(=O)[C@H](CC(C)C)NC(=O)[C@H](CCCNC(=N)N)NC(=O)[C@H](CCC(N)=O)NC(=O)[C@@H](NC(=O)[C@H](C)NC(=O)[C@@H]1CSSC[C@H](NC(=O)[C@@H](N)CCCCNC(=O)COCCOCCNC(=O)CC[C@H](NC(=O)CCCCCCCCCCCCCCCCCCC(=O)O)C(=O)O)C(=O)N[C@@H](CC(N)=O)C(=O)N[C@@H]([C@@H](C)O)C(=O)N[C@@H](C)C(=O)N[C@@H]([C@@H](C)O)C(=O)N1)[C@@H](C)O)C(=O)N1CCC[C@H]1C(=O)N[C@@H](CO)C(=O)N[C@@H](CO)C(=O)N[C@H](C(=O)N[C@@H](CC(N)=O)C(=O)N[C@H](C(=O)NCC(=O)N[C@@H](CO)C(=O)N[C@@H](CCCNC(=N)N)C(=O)N[C@H](C(=O)N[C@@H](Cc1ccc(O)cc1)C(N)=O)[C@@H](C)O)C(C)C)[C@@H](C)O
notes: also called compound 38
B4: N^ε1-[(4S)-4-carboxy-4-(19-carboxynonadecanoylamino)butanoyl]-[Arg17,Pro21,Pro27,Lys35]-h-amylin (peptide)
peptide: K([γGlu-C20 diacid])CNTATCATQRLANFLRHSSPNFGAIPSSTNVGSKTY-NH2
modifications: disulfide 2-7; N-terminus assumed
SMILES: CC[C@H](C)[C@H](NC(=O)[C@H](C)NC(=O)CNC(=O)[C@H](Cc1ccccc1)NC(=O)[C@H](CC(N)=O)NC(=O)[C@@H]1CCCN1C(=O)[C@H](CO)NC(=O)[C@H](CO)NC(=O)[C@H](Cc1c[nH]cn1)NC(=O)[C@H](CCCNC(=N)N)NC(=O)[C@H](CC(C)C)NC(=O)[C@H](Cc1ccccc1)NC(=O)[C@H](CC(N)=O)NC(=O)[C@H](C)NC(=O)[C@H](CC(C)C)NC(=O)[C@H](CCCNC(=N)N)NC(=O)[C@H](CCC(N)=O)NC(=O)[C@@H](NC(=O)[C@H](C)NC(=O)[C@@H]1CSSC[C@H](NC(=O)[C@@H](N)CCCCNC(=O)CC[C@H](NC(=O)CCCCCCCCCCCCCCCCCCC(=O)O)C(=O)O)C(=O)N[C@@H](CC(N)=O)C(=O)N[C@@H]([C@@H](C)O)C(=O)N[C@@H](C)C(=O)N[C@@H]([C@@H](C)O)C(=O)N1)[C@@H](C)O)C(=O)N1CCC[C@H]1C(=O)N[C@@H](CO)C(=O)N[C@@H](CO)C(=O)N[C@H](C(=O)N[C@@H](CC(N)=O)C(=O)N[C@H](C(=O)NCC(=O)N[C@@H](CO)C(=O)N[C@@H](CCCCN)C(=O)N[C@H](C(=O)N[C@@H](Cc1ccc(O)cc1)C(N)=O)[C@@H](C)O)C(C)C)[C@@H](C)O
notes: also called compound 35
B5: N^ε1-[(4S)-4-carboxy-4-(19-carboxynonadecanoylamino)butanoyl]-[Arg17,Pro21,Pro27,Glu35]-h-amylin (peptide)
peptide: K([γGlu-C20 diacid])CNTATCATQRLANFLRHSSPNFGAIPSSTNVGSETY-NH2
modifications: disulfide 2-7; N-terminus assumed
SMILES: CC[C@H](C)[C@H](NC(=O)[C@H](C)NC(=O)CNC(=O)[C@H](Cc1ccccc1)NC(=O)[C@H](CC(N)=O)NC(=O)[C@@H]1CCCN1C(=O)[C@H](CO)NC(=O)[C@H](CO)NC(=O)[C@H](Cc1c[nH]cn1)NC(=O)[C@H](CCCNC(=N)N)NC(=O)[C@H](CC(C)C)NC(=O)[C@H](Cc1ccccc1)NC(=O)[C@H](CC(N)=O)NC(=O)[C@H](C)NC(=O)[C@H](CC(C)C)NC(=O)[C@H](CCCNC(=N)N)NC(=O)[C@H](CCC(N)=O)NC(=O)[C@@H](NC(=O)[C@H](C)NC(=O)[C@@H]1CSSC[C@H](NC(=O)[C@@H](N)CCCCNC(=O)CC[C@H](NC(=O)CCCCCCCCCCCCCCCCCCC(=O)O)C(=O)O)C(=O)N[C@@H](CC(N)=O)C(=O)N[C@@H]([C@@H](C)O)C(=O)N[C@@H](C)C(=O)N[C@@H]([C@@H](C)O)C(=O)N1)[C@@H](C)O)C(=O)N1CCC[C@H]1C(=O)N[C@@H](CO)C(=O)N[C@@H](CO)C(=O)N[C@H](C(=O)N[C@@H](CC(N)=O)C(=O)N[C@H](C(=O)NCC(=O)N[C@@H](CO)C(=O)N[C@@H](CCC(=O)O)C(=O)N[C@H](C(=O)N[C@@H](Cc1ccc(O)cc1)C(N)=O)[C@@H](C)O)C(C)C)[C@@H](C)O
notes: also called compound 27

What follows are binders tested against T1, human amylin receptor (assay: SPA competition vs 125I-rat amylin, membranes of amylin 3(a) receptor BHK cells (Assay V)).
Description: The binding assay was performed using scintillation proximity assay (SPA) beads (RPNQ0001) from PerkinElmer and cell membranes from the Amylin 3(a)/CRE-luc cells (as described in Assay (II)) were used. Membranes were prepared in the following way; the cells were rinsed with PBS and incubated with Versene for approximately 5 min before harvesting. The cells were flushed with PBS and the cell-suspension was centrifuged for 5 min at 1000 rpm. Cells were homogenized (ultrathurrax) in a buffer containing 20 mM Na-HEPES and 10 mM EDTA (pH 7.4) and centrifuged at 20.000 rpm for 15 min. The resulting pellet was resuspended, homogenized and centrifuged (20.000 rpm, 15 min) in a buffer containing 20 mM Na-HEPES and 0.1 mM EDTA (pH 7.4, buffer 2). The resulting pellet was resuspended in buffer 2 and protein concentration was measured (BCA protein Assay, Pierce). The homogenate was kept cold during the whole procedure. The membranes were kept at −80° C. until use. The assay was performed in a 384 well Optiplate (PerkinElmer) in a total volume of 40 ul. Membranes were mixed with SPA beads. Final concentration of membranes 35 ng/μL final and SPA beads was 0.05 mg/well. Test-compounds were dissolved in DMSO and further diluted in assay buffer (50 mM Hepes, pH 7.4, 1 mM CaCl2, 5 mM MgCl₂, 0.1% OA and 0.02% Tween20). […] The final mixture was incubated with shaking at 400 rpm for 120 min at 25° C. prior to centrifugation (1500 rpm, 10 min). Samples were analyzed on TopCounter™ (Packard). The IC₅₀ was calculated using (one site binding competition analysis) GraphPad Prism5 as a measure of receptor affinity.

Binder	IC50 [pM]
B1	768
B2	532
B3	249
B4	970
B5	837
